Test results as given in patent US20240100176A1 (Eli Lilly, published 2024).

How the values were obtained:
Assay in all cases: capture ELISA: Ab1 on anti-human IgG Fc, His-tagged receptor at 0.04 µg/mL, anti-His HRP
[1] = target: T1, hexahistidine tagged human IL-4Rα ECD K195D (human, UniProt P24394 26-232)
T1 construct: not shown: hexahistidine tag
Text: (§1) Example 2d. […] Briefly, thirty surface amino acid residue substitutions were introduced individually into hexahistidine tagged human IL-4Rα extra cellular domain (ECD) as follows: K2D, E6R, K22D, P26R, T31R, F41A, L42G, L43G, E45R, E52R, G56R, D66R, A71R, Q82G, K87D, E94R, H107A, D108R, P124R, D125R, D143R, R148D, L155R, R160D, S164R, S168R, Q181R, P192R, K195D, or H197G. Each mutant protein having a single amino acid residue substitution as described above was transiently expressed in CHO cells and purified using standard immobilized metal affinity chromatography techniques. […] The plates were then washed 3 times with PBST and the exemplified human IL-4Rα antibody was added to the wells at a final concentration of 1 μg/mL in PBS-casein and incubated for 1 hour at room temperature. The plates were washed 3 times with PBST, the IL-4Rα mutant proteins were serially diluted 5-fold from 1 μg/mL for 3 points. in PBS-casein and added to the plate at 50 μL/well and incubated for 1 hour at room temperature. The plates were washed 3 times with PBST and a 1000-fold dilution of anti-histidine tag antibody HRP conjugate (R&D Systems, Cat. #MAB050H) in PBS-casein was added and incubated for 45 minutes at room temperature. The plates were washed 3 times, TMB substrate (Pierce, Cat. #34028) was added per manufacturer instructions, the reaction was quenched with H₂SO₄, and absorbance was read at 450 nm on an ELISA plate reader.

[2] = target: T2, hexahistidine tagged human IL-4Rα ECD K22D (human, UniProt P24394 26-232)
T2 construct: not shown: hexahistidine tag
Text: as §1

[3] = target: T3, hexahistidine tagged human IL-4Rα ECD L155R (human, UniProt P24394 26-232)
T3 construct: not shown: hexahistidine tag
Text: as §1

[4] = target: T4, hexahistidine tagged human IL-4Rα ECD Q82G (human, UniProt P24394 26-232)
T4 construct: not shown: hexahistidine tag
Text: as §1

[5] = target: T5, hexahistidine tagged human IL-4Rα ECD D125R (human, UniProt P24394 26-232)
T5 construct: not shown: hexahistidine tag
Text: as §1

[6] = target: T6, hexahistidine tagged human IL-4Rα ECD D143R (human, UniProt P24394 26-232)
T6 construct: not shown: hexahistidine tag
Text: as §1

[7] = target: T7, hexahistidine tagged human IL-4Rα ECD L42G (human, UniProt P24394 26-232)
T7 construct: not shown: hexahistidine tag
Text: as §1

[8] = target: T8, hexahistidine tagged human IL-4Rα ECD G56R (human, UniProt P24394 26-232)
T8 construct: not shown: hexahistidine tag
Text: as §1

[9] = target: T9, hexahistidine tagged human IL-4Rα ECD H197G (human, UniProt P24394 26-232)
T9 construct: not shown: hexahistidine tag
Text: as §1

[10] = target: T10, hexahistidine tagged human IL-4Rα ECD E6R (human, UniProt P24394 26-232)
T10 construct: not shown: hexahistidine tag
Text: as §1

[11] = target: T11, hexahistidine tagged human IL-4Rα ECD S164R (human, UniProt P24394 26-232)
T11 construct: not shown: hexahistidine tag
Text: as §1

[12] = target: T12, hexahistidine tagged human IL-4Rα ECD E52R (human, UniProt P24394 26-232)
T12 construct: not shown: hexahistidine tag
Text: as §1

[13] = target: T13, hexahistidine tagged human IL-4Rα ECD L43G (human, UniProt P24394 26-232)
T13 construct: not shown: hexahistidine tag
Text: as §1

[14] = target: T14, hexahistidine tagged human IL-4Rα ECD P26R (human, UniProt P24394 26-232)
T14 construct: not shown: hexahistidine tag
Text: as §1

[15] = target: T15, hexahistidine tagged human IL-4Rα ECD Q181R (human, UniProt P24394 26-232)
T15 construct: not shown: hexahistidine tag
Text: as §1

[16] = target: T16, hexahistidine tagged human IL-4Rα ECD S168R (human, UniProt P24394 26-232)
T16 construct: not shown: hexahistidine tag
Text: as §1

[17] = target: T17, hexahistidine tagged human IL-4Rα ECD H107A (human, UniProt P24394 26-232)
T17 construct: not shown: hexahistidine tag
Text: as §1

[18] = target: T18, hexahistidine tagged human IL-4Rα ECD E45R (human, UniProt P24394 26-232)
T18 construct: not shown: hexahistidine tag
Text: as §1

T6 sequence (P24394 26-232 D168R): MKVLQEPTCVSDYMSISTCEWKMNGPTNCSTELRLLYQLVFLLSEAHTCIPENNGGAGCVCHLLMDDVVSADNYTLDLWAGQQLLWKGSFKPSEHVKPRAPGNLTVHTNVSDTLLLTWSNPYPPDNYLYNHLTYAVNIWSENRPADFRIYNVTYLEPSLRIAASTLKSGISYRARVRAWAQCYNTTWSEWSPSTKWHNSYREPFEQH
T18 sequence (P24394 26-232 E70R): as the sequence (P24394 26-232 D168R) above, with E45R, R143D counted along it
T10 sequence (P24394 other isoform, or with tags, fused parts or gaps): as the sequence (P24394 26-232 D168R) above, with E6R, R143D counted along it
T5 sequence (P24394 26-232 D150R): as the sequence (P24394 26-232 D168R) above, with D125R, R143D counted along it
T15 sequence (P24394 26-232 Q206R): as the sequence (P24394 26-232 D168R) above, with R143D, Q181R counted along it
T17 sequence (P24394 26-232 H132A): as the sequence (P24394 26-232 D168R) above, with H107A, R143D counted along it
T3 sequence (P24394 26-232 L180R): as the sequence (P24394 26-232 D168R) above, with R143D, L155R counted along it
T9 sequence (P24394 26-232 H222G): as the sequence (P24394 26-232 D168R) above, with R143D, H197G counted along it
T2 sequence (P24394 26-232 K47D): as the sequence (P24394 26-232 D168R) above, with K22D, R143D counted along it
T1 sequence (P24394 26-232 K220D): as the sequence (P24394 26-232 D168R) above, with R143D, K195D counted along it

- ELISA (OD450) [1]: 0.992 OD450
- ELISA (OD450) [2]: 0.593 OD450
- ELISA (OD450) [3]: 1.14 OD450
- ELISA (OD450) [4]: 1.1 OD450
- ELISA (OD450) [5]: 1.01 OD450
- ELISA (OD450) [6]: 1.27 OD450
- ELISA (OD450) [7]: 0.965 OD450
- ELISA (OD450) [8]: 1.17 OD450
- ELISA (OD450) [9]: 0.967 OD450
- ELISA (OD450) [10]: 0.915 OD450
- ELISA (OD450) [11]: 1.4 OD450
- ELISA (OD450) [12]: 1.1 OD450
- ELISA (OD450) [13]: 1.35 OD450
- ELISA (OD450) [14]: 0.883 OD450
- ELISA (OD450) [15]: 1.17 OD450
- ELISA (OD450) [16]: 1.18 OD450
- ELISA (OD450) [17]: 1.42 OD450
- ELISA (OD450) [18]: 1.58 OD450
B1: anti-human IL-4Rα antibody Ab1 (antibody, human IgG4 S228P, kappa)
heavy: QVQLVESGGGLVQPGGSLRLSCVASGFTFSHSSMNWVRQAPGKGLEWVSYISRATGAVYYADSVKGRFTISRDNAKNSLYLQMNSLRDEDTAVYYCAREPVFDYWGQGTLVTVSSASTKGPCVFPLAPCSRSTSESTAALGCLVKDYFPEPVTVSWNSGALTSGVHTFPAVLQSSGLYSLSSVVTVPSSSLGTKTYTCNVDHKPSNTKVDKRVESKYGPPCPPCPAPEFLGGPSVFLFPPKPKDTLMISRTPEVTCVVVDVSQEDPEVKFNWYVDGVEVHNAKTKPREEQFNSTYRVVSVLTVLHQDWLNGKEYKCKVSNKGLPSSIEKTISKAKGQPREPQVYTLPPSREEMTKNQVSLTCLVKGFYPSDICVEWESNGQPENNYKTTPPVLDSDGSFFLYSRLTVDKSRWQQGNVFSCSVMHEALHNHYTQKSLSLSLG
light: DIQMTQSPSAMSASVGDRVTITCRASQDISNYLAWFQQKPGKVPTRLIYAASSLQSGVPSRFSGSGSGTEFTLTISSLQPEDFATYYCLQWSSYPRTFGQGTKVEIKRTVAAPSVFIFPPSDEQLKSGTASVVCLLNNFYPREAKVQWKVDNALQSGNSQESVTEQDSKDSTYSLSSTLTLSKADYEKHKVYACEVTHQGLSSPVTKSFNRGEC
notes: human kappa light chain; also called anti-human IL-4Rα Ab1; unconjugated Ab1
